Experimental data taken from the Human Domainome abundance scans (Beltran et al. 2025).
± gives the uncertainty stated by the source.

B1: POU domain, class 3, transcription factor 2, residues 356 to 411; numbered along this chain, P20265 (parent)
chain: KKRTSIEVSVKGALESHFLKCPKPSAQEITSLADSLQLEKEVVRVWFCNRRQKEKR
B2: Cytoplasmic polyadenylation element-binding protein 2, residues 513 to 575; numbered along this chain, Q7Z5Q1 (parent)
chain: KRVEVKPYVLDDQMCDECQGARCGGKFAPFFCANVTCLQYYCEFCWANIHSRAGREFHKPLVK

Variants of: B1
Assay: abundance fitness (aPCA) (normalised: wild type 0, dead -1); higher = more abundant; growth selection in yeast, the domain comes from the species named
Details: Homo sapiens

Abundance fitness: each site, then its substitutions
S16: R -0.055 ± 0.072 | M -0.06 ± 0.12 | A 0.097 ± 0.11 | Q 0.073 ± 0.15 | C -0.226 ± 0.12 | K 0.12 ± 0.13 | H -0.21 ± 0.16 | Y -0.382 ± 0.16 | D -0.193 ± 0.15 | E -0.015 ± 0.1 | N -0.297 ± 0.15 | P -0.539 ± 0.14 | T -0.034 ± 0.11 | I -0.368 ± 0.18 | W -0.399 ± 0.11
L14: T -0.953 ± 0.22 | S -0.923 ± 0.11 | K -0.933 ± 0.2 | G -0.882 ± 0.12 | H -0.762 ± 0.2 | C -0.78 ± 0.2 | I -0.706 ± 0.27 | V -0.641 ± 0.13 | Q -0.848 ± 0.21 | N -0.632 ± 0.23 | F -0.814 ± 0.22 | W -0.915 ± 0.14 | A -1.04 ± 0.22 | M -0.501 ± 0.13 | E -0.794 ± 0.23 | R -0.855 ± 0.092
E7: H 0.028 ± 0.069 | G 0.077 ± 0.081 | I -0.116 ± 0.081 | W -0.242 ± 0.1 | R -0.014 ± 0.066 | T 0.221 ± 0.06 | C 0.014 ± 0.073 | L -0.177 ± 0.057 | Y -0.358 ± 0.072 | N 0.138 ± 0.079 | A -0.039 ± 0.071 | V -0.21 ± 0.071 | M 0.032 ± 0.096 | D 0.066 ± 0.077 | S 0.191 ± 0.058 | K -0.112 ± 0.092
F18: H -0.938 ± 0.27 | E -0.979 ± 0.21 | A -0.902 ± 0.13 | C -0.914 ± 0.21 | D -0.875 ± 0.17 | G -0.976 ± 0.1
I6: D -0.072 ± 0.13 | F -0.438 ± 0.17 | M -0.049 ± 0.17 | C -0.172 ± 0.11 | Y -0.239 ± 0.16 | W -0.289 ± 0.11 | R -0.117 ± 0.084 | H -0.247 ± 0.17 | K 0.103 ± 0.15 | Q -0.226 ± 0.19 | G -0.119 ± 0.071 | P -0.213 ± 0.16 | T -0.111 ± 0.16 | S -0.053 ± 0.12 | E -0.091 ± 0.15 | L 0.045 ± 0.089 | A -0.069 ± 0.14
S9: Q 0.1 ± 0.21 | V -0.123 ± 0.083 | F -0.366 ± 0.1 | M -0.025 ± 0.14 | W 0.004 ± 0.11 | E 0.046 ± 0.12 | G 0.046 ± 0.074 | P -0.041 ± 0.19 | L -0.153 ± 0.11 | K 0.109 ± 0.12 | T 0.09 ± 0.091 | H 0.057 ± 0.24 | Y -0.267 ± 0.19 | I -0.197 ± 0.17 | R 0.108 ± 0.1 | N -0.198 ± 0.12
K2: W -0.246 ± 0.13 | R -0.166 ± 0.099 | P -0.525 ± 0.24 | H -0.335 ± 0.47 | I -0.207 ± 0.21 | T -0.21 ± 0.14 | Y -0.06 ± 0.28 | L -0.222 ± 0.12 | E -0.07 ± 0.18 | D 0.028 ± 0.18 | F -0.199 ± 0.2 | S -0.18 ± 0.12 | G -0.087 ± 0.1 | M -0.072 ± 0.13 | V -0.119 ± 0.12 | C -0.395 ± 0.2 | N -0.339 ± 0.2 | A -0.154 ± 0.15 | Q -0.068 ± 0.17
T4: I 0.053 ± 0.15 | W -0.546 ± 0.12 | C -0.287 ± 0.15 | R -0.356 ± 0.074 | N -0.032 ± 0.16 | H -0.363 ± 0.13 | P -0.101 ± 0.12 | Q -0.107 ± 0.14 | G -0.198 ± 0.088 | F 0.126 ± 0.23 | Y -0.209 ± 0.14 | L -0.199 ± 0.085 | S -0.029 ± 0.081 | E 0.17 ± 0.18 | D 0.023 ± 0.16 | M -0.015 ± 0.1 | K -0.267 ± 0.14 | V -0.095 ± 0.087
V10: M -0.134 ± 0.16 | E -0.068 ± 0.13 | C -0.294 ± 0.14 | F -0.568 ± 0.21 | T 0.046 ± 0.11 | I -0.013 ± 0.12 | R -0.266 ± 0.09 | A -0.036 ± 0.08 | Q -0.13 ± 0.17 | L -0.134 ± 0.091 | H -0.095 ± 0.24 | P -0.554 ± 0.17 | K 0.041 ± 0.12 | G -0.318 ± 0.077 | W -0.19 ± 0.1
K11: I 0.074 ± 0.13 | Y -0.239 ± 0.25 | P -0.269 ± 0.13 | V 0.026 ± 0.084 | M -0.041 ± 0.12 | F -0.139 ± 0.2 | R -0.126 ± 0.082 | D 0.099 ± 0.13 | T -0.027 ± 0.11 | A -0.094 ± 0.091 | G -0.134 ± 0.091 | L 0.03 ± 0.087 | H 0.031 ± 0.12 | N -0.143 ± 0.15 | C -0.264 ± 0.13 | E 0.038 ± 0.11 | W -0.039 ± 0.13
G12: S 0.097 ± 0.082 | D -0.027 ± 0.093 | L 0.117 ± 0.084 | Q -0.053 ± 0.13 | I 0.193 ± 0.13 | P -0.152 ± 0.11 | M 0.068 ± 0.14 | V 0.22 ± 0.086 | Y -0.058 ± 0.15 | H -0.015 ± 0.099 | F -0.085 ± 0.17 | E 0.079 ± 0.13 | N -0.153 ± 0.16 | K -0.056 ± 0.15 | A 0.124 ± 0.093 | C 0.039 ± 0.098 | R -0.045 ± 0.084 | T 0.21 ± 0.093
H17: I -0.289 ± 0.16 | M -0.047 ± 0.11 | C -0.283 ± 0.12 | R -0.556 ± 0.085 | E -0.139 ± 0.1 | V -0.287 ± 0.082 | Y 0.156 ± 0.083 | S 0.089 ± 0.095 | Q -0.286 ± 0.13 | K -0.364 ± 0.13 | A 0.127 ± 0.1 | P -1.05 ± 0.25 | W -0.02 ± 0.098 | T -0.1 ± 0.11 | G -0.712 ± 0.1 | N -0.229 ± 0.35 | D -0.833 ± 0.22 | L -0.292 ± 0.079
V8: F 0.065 ± 0.18 | E 0.093 ± 0.12 | T 0.011 ± 0.11 | M 0.046 ± 0.11 | I 0.051 ± 0.1 | G 0.091 ± 0.075 | N 0.212 ± 0.19 | W -0.131 ± 0.1 | A 0.202 ± 0.11 | S 0.096 ± 0.079 | Q 0.069 ± 0.13 | H 0.128 ± 0.15 | D -0.064 ± 0.14 | R 0.049 ± 0.094 | C -0.327 ± 0.14 | P 0.119 ± 0.17 | L 0.007 ± 0.09
S5: A -0.001 ± 0.12 | W -0.313 ± 0.11 | F -0.053 ± 0.18 | R -0.105 ± 0.068 | Y -0.183 ± 0.17 | M -0.018 ± 0.12 | L 0.002 ± 0.085 | I 0.118 ± 0.16 | H 0.095 ± 0.17 | C 0.033 ± 0.096 | Q 0.095 ± 0.14 | K 0.14 ± 0.12 | D -0.174 ± 0.15 | V 0.229 ± 0.096 | G 0.024 ± 0.072 | P 0.007 ± 0.11 | T 0.173 ± 0.1
R3: H 0.002 ± 0.11 | I 0.045 ± 0.15 | F -0.021 ± 0.13 | S 0.023 ± 0.1 | N 0.13 ± 0.16 | P -0.134 ± 0.15 | W -0.273 ± 0.15 | G 0.092 ± 0.08 | Y 0.026 ± 0.18 | M 0.031 ± 0.11 | A -0.168 ± 0.082 | K 0.054 ± 0.21 | L 0.01 ± 0.087 | T -0.009 ± 0.11 | V 0.051 ± 0.091 | C 0.246 ± 0.12
E15: Q -0.527 ± 0.24 | K -0.83 ± 0.21 | R -1.02 ± 0.14 | Y -0.777 ± 0.21 | A -0.88 ± 0.15 | M -0.649 ± 0.15 | I -0.649 ± 0.14 | P -1.04 ± 0.22 | H -0.805 ± 0.36 | S -0.959 ± 0.14 | G -0.885 ± 0.11 | C -0.612 ± 0.18 | N -0.693 ± 0.18 | D -0.623 ± 0.18 | T -0.788 ± 0.17 | W -0.822 ± 0.15
A13: C -0.044 ± 0.11 | P -0.442 ± 0.19 | N -0.211 ± 0.16 | F -0.019 ± 0.19 | Q 0.011 ± 0.14 | S -0.162 ± 0.09 | R 0.083 ± 0.08 | E -0.067 ± 0.1 | V 0.042 ± 0.097 | D -0.356 ± 0.12 | T -0.064 ± 0.12 | Y -0.142 ± 0.12 | I -0.184 ± 0.15 | W -0.422 ± 0.11 | K 0.081 ± 0.15 | L -0.074 ± 0.084 | G -0.379 ± 0.088 | H -0.196 ± 0.2 | M 0.024 ± 0.14
K1: T -0.206 ± 0.14 | M -0.244 ± 0.24 | V -0.072 ± 0.28 | D 0.082 ± 0.15 | N -0.012 ± 0.2 | L -0.498 ± 0.46 | G -0.214 ± 0.13 | R -0.302 ± 0.17 | A -0.237 ± 0.21 | Y -0.382 ± 0.44 | S -0.273 ± 0.15 | I -0.397 ± 0.22

Variants of: B2
Assay: as above
Details: Homo sapiens

Abundance fitness, by site and new letter:
P60: N -0.057 ± 0.12 | W -0.817 ± 0.069 | Q 0.051 ± 0.046 | T -0.558 ± 0.1 | M -0.157 ± 0.064 | R -0.052 ± 0.041 | V -0.331 ± 0.049
K63: T -0.079 ± 0.085 | V -0.112 ± 0.062 | Q -0.044 ± 0.11 | A 0.125 ± 0.16 | W -0.415 ± 0.09 | Y -0.408 ± 0.14 | G 0.1 ± 0.1 | R -0.105 ± 0.092 | N -0.091 ± 0.11 | M -0.111 ± 0.14 | D -0.641 ± 0.21 | S -0.034 ± 0.13 | E 0.014 ± 0.082 | H -0.014 ± 0.11 | P 0.367 ± 0.3
V62: R 0.105 ± 0.42 | D -0.164 ± 0.22 | S -0.081 ± 0.34 | M 0.081 ± 0.22 | I -0.103 ± 0.1 | A -0.193 ± 0.47
L61: R -0.014 ± 0.042 | K 0.065 ± 0.064 | E 0.146 ± 0.051 | T 0.076 ± 0.052 | D 0.04 ± 0.083 | A 0.092 ± 0.044 | N 0.033 ± 0.077 | G 0.076 ± 0.042 | M 0.012 ± 0.056 | H -0.048 ± 0.11 | Q 0.116 ± 0.057 | W -0.137 ± 0.045 | V 0.091 ± 0.041 | C 0.091 ± 0.059 | I 0.071 ± 0.072 | Y -0.197 ± 0.081 | F -0.11 ± 0.079 | S 0.12 ± 0.04
